US20150177248

Target: T1, acetylated p53 peptide (p53-382/diAc), P04637
T1 chain: RHKK

B1: SIRT7 (sirtuin 7) protein (protein)
chain: MAAGGLSRSERKAAERVRRLREEQQRERLRQVSRILRKAAAERSAEEGRLLAESADLVTELQGRSRRREGLKRRQEEVCDDPEELRGKVRELASAVRNAKYLVVYTGAGISTAASIPDYRGPNGVWTLLQKGRSVSAADLSEAEPTLTHMSITRLHEQKLVQHVVSQNCDGLHLRSGLPRTAISELHGNMYIEVCTSCVPNREYVRVFDVTERTALHRHQTGRTCHKCGTQLRDTIVHFGERGTLGQPLNWEAATEAASRADTILCLGSSLKVLKKYPRLWCMTKPPSRRPKLYIVNLQWTPKDDWAALKLHGKCDDVMRLLMAELGLEIPAYSRWQDPIFSLATPLRAGEEGSHSRKSLCRSREEAPPGDRGAPLSSAPILGGWFGRGCTKRTKRKKVT
Question: With B1 as the protein, how does the deacetylation activity read?
Answer: significantly increased
